According to patent publication US20210054355A1 (NEW YORK UNIVERSITY, published 2021):

Legend:
[1] = biological target: T1, FGFR1c^ecto (human FGFR1c ligand-binding domain, D2, D3 and D2-D3 linker) (human, UniProt P11362 142-365); assay: crystal structure of the ternary complex, 3.0 Å
T1 sequence: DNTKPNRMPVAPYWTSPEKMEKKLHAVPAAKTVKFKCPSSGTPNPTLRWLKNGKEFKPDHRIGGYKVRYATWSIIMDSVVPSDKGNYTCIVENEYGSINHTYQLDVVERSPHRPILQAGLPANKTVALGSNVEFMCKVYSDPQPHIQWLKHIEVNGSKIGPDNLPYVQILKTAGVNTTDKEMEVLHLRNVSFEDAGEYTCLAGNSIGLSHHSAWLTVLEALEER
Description: To prepare the FGF23-FGFR1c^ecto-αKlotho^ecto complex, its purified components were mixed at a molar ratio of 1.2:1.2:1 and spin-concentrated using an Amicon Ultra-15 concentrator (#UFC901024, Merck Millipore, Germany). The concentrated sample was applied to a Superdex 200 column (GE Healthcare, USA) and eluted isocratically in 25 mM HEPES pH 7.5 buffer containing 500 mM NaCl and 100 mM (NH₄)₂SO₄. Column peak fractions were analyzed by SDS-PAGE and peak fractions containing the ternary complex were concentrated to 7 mg/ml. Concentrated ternary complex was screened for crystallization by sitting drop vapor diffusion. A range of commercially available crystallization screen kits was used: Protein Complex Suite (#130715), Classics Suite (#130701), Classics II Suite (#130723), and Classics Lite Suite (#130702) from Qiagen, Germany; Crystal Screen (#HR2-110), Crystal Screen 2 (#HR2-112), Crystal Screen Lite (#HR2-128), PEG/Ion Screen (#HR2-126), and PEGRx1 (#HR2-082) from Hampton Research, USA; and PEG Grid Screening Kit (#36436) and Crystallization Cryo Kit (#75403) from Sigma-Aldrich, USA. Drops consisting of 100 nl reservoir solution and 100 nl protein complex solution were equilibrated against 100 μl well volume set up in 96-well plates (Fisher Scientific, USA) using a Mosquito crystallization robot (TTP Labtech, U.K.). […]

[2] = biological target: T2, FGFR1c^ecto/ΔSLBS (FGFR1c^ecto carrying I203E) (human, UniProt P11362 142-365); assay: SEC-MALS, 1:1:1 ternary complex with FGF23 and αKlotho^ecto
T2 construct: also called FGFR1c^ΔSLBS
T2 sequence: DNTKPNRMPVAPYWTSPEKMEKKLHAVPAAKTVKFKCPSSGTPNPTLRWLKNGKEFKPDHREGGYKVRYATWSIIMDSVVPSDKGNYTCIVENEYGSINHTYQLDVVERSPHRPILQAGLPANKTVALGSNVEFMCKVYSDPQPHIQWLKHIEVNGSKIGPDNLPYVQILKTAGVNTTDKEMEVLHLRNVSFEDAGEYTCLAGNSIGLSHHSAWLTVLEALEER
Description: (§1) A Superdex 200 10/300 GL column (GE Healthcare, USA) was placed in-line between the HPLC pump (Waters 1525) and the HPLC UV (Waters 2998 Photodiode Array), laser light scattering, and refractive index detectors. Light scattering and refractive index detectors were calibrated following the manufacturer's guidelines. The refractive index increment (dn/dc) in which n is the refractive index and c is the concentration of the mixture of DDM and CHS in 20 mM Tris-HCl pH 8.0 buffer containing 300 mM NaCl, was determined offline using an Optilab T-rEX refractive index detector. Monomeric bovine serum albumin (#23210, Thermo Scientific, USA) was used as part of routine data quality control.
(§2) 60 ml or more of 25 mM HEPES pH 7.5 buffer containing 150 mM NaCl were passed through the system at a flow rate of 0.5 mL/min to equilibrate the Superdex 200 10/300 GL column and establish stable baselines for light scattering and refractive index detectors. Purified αKlotho^ecto, FGER1c^ecto (wild type or mutant), and FGF23 (wild type or mutant) proteins were mixed at a molar ratio of 1:1:1 and concentrated to 12.5 μM. 50 μl of protein samples with a molar equivalent of a heparin hexasaccharide (#H006, Iduron, Manchester, U.K.) were injected onto the gel filtration column, and the column eluent was continuously monitored for 280 nm absorbance, laser light scattering, and refractive index. In a separate set of experiments, 50 μl of 1:1:1 FGF23-FGFR1c^ecto-αKlotho^ecto ternary complex at 12.5 μM concentration was mixed with heparin hexasaccharide at molar ratios of 1:0.25, 1:0.5, 1:1, or 1:2, and the mixtures were injected onto the gel filtration column. 50 μl of ternary complex without added heparin hexasaccharide were run as a control. In yet another set of experiments, αKlotho^ecto (wild type or mutant) and FGER1c^ecto were mixed at a molar ratio of 1:1, and 50 μl of concentrated protein mixtures were injected onto the gel filtration column. 50 μl of concentrated αKlotho^ecto (wild type or mutant) alone were run as a control in these experiments. […]

[3] = biological target: T3, FGFR1c^ecto/ΔRRBS (FGFR1c^ecto carrying A171D) (human, UniProt P11362 142-365); assay: as above
T3 construct: also called FGFR1^ΔRRBS
T3 sequence: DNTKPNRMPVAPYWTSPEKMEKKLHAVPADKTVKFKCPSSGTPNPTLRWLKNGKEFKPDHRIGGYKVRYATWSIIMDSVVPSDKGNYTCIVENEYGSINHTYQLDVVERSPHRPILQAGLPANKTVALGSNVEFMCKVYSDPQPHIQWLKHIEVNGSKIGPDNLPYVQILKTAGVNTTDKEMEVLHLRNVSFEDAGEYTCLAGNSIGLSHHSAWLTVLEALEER
Description: as §1, §2

Measured: binding result

B1: FGF23^WT (human FGF23 Y25 to S205 with R176Q/R179Q, protease-resistant minimal protein) (ligand)
chain: YPNASPLLGSSWGGLIHLYTATARNSYHLQIHKNGHVDGAPHQTIYSALMIRSEDAGFVVITGVMSRRYLCMDFRGNIFGSHYFDPENCRFQHQTLENGYDVYHSPQYHFLVSLGRAKRAFLPGMNPPPYSQFLSRRNEIPLIHFNTPIPRQHTQSAEDDSERDPLNVLKPRARMTPAPAS
notes: also called wild-type FGF23; minimal FGF23
binds: [1] | [2] | [3]
